Experimental data reported in patent US20180280525A1 (published 2018).
One block for each binder: values may come before it. Numbered stars: 1 amine (or outer) side, 2 acyl side, 3 side chain; on linkers, the order of the positions; unused ones are H or OH. Bridge positions count the residues as written; N and C are the ends. Square brackets hold non-standard residues; d marks the D form. Ends that are not written are not given here. * marks the point of attachment. DOTA = O=C(O)CN1CCN(CC(=O)O)CCN(CC(=O)*)CCN(CC(=O)O)CC1; fluorescein = fluorescein label on the Lys side chain; Phe(4-Br) = N[C@@H](Cc1ccc(Br)cc1)C(=O)O; 1Nal = N[C@@H](Cc1cccc2ccccc12)C(=O)O; TBMB = c1c(C[*:1])cc(C[*:3])cc1C[*:2]; Tle = CC(C)(C)[C@H](N)C(=O)O; Sar = CNCC(=O)O

Experiments:
[1] = molecular target: T1, human MT1-MMP hemopexin domain (human, UniProt P50281 319-511); assay: FP competition, tracer A-(17-69-07)-A-Sar6-K(Fluorescein)
T1 construct: range 319-511; Secreted from HEK293 cells as soluble N-terminally His6-tagged protein; also called MT1-MMP hemopexin-like repeats; MMP14

[2] = molecular target: T1, human MT1-MMP hemopexin domain; assay: FP direct binding, fluoresceinated peptide titrated with hemopexin domain
[3] = molecular target: T1, human MT1-MMP hemopexin domain; assay: FP competition, tracer A-(17-69-12)-A-Sar6-K(Fluorescein)
[4] = molecular target: T1, human MT1-MMP hemopexin domain; assay: FP competition, human MT1-MMP hemopexin domain; tracer not given
[5] = molecular target: T1, human MT1-MMP hemopexin domain; assay: as above; remark: listed apart in the source
[6] = molecular target: T1, human MT1-MMP hemopexin domain; assay: FP competition, human MT1-MMP hemopexin domain; method not given
[7] = molecular target: T1, human MT1-MMP hemopexin domain; assay: FP competition, human MT1-MMP hemopexin domain; tracer not given; remark: listed apart in the source
[8] = molecular target: T1, human MT1-MMP hemopexin domain; assay: FP competition, tracer A-(17-69-07)-A-Sar6-K(Fluorescein); remark: listed apart in the source
[9] = molecular target: T1, human MT1-MMP hemopexin domain; assay: FP competition, human MT1-MMP hemopexin domain; tracer not given; remark: listed apart in the source
[10] = molecular target: T1, human MT1-MMP hemopexin domain; assay: FP competition, human MT1-MMP hemopexin domain (n = 3; footnote e)
[11] = molecular target: T2, dog MT1-MMP hemopexin domain (dog, UniProt A0A8I3MND9 318-511); assay: FP competition, dog MT1-MMP hemopexin domain
T2 construct: domain: hemopexin domain
Procedure: Subsequently, the non-fluorescent competitor bicyclic peptide (usually just the bicycle core sequence) is titrated, such that it displaces the fluorescent tracer from the target protein. The displacement of the tracer is measured and associated with a drop in fluorescence polarisation. The drop in fluorescence polarisation is proportional to the fraction of target protein bound with the non-fluorescent titrant, and thus is a measure of the affinity of titrant to target protein.

[12] = molecular target: T1, human MT1-MMP hemopexin domain; assay: FP competition, Human/cyno MT1-MMP hemopexin domain

B1: 17-69-02-N001 (peptide)
peptide: ACFGEFGCEDFYDICA
modifications: linker 2-8-15 via TBMB; not fully specified (C-terminus)
notes: also called A-(17-69-02)-A
- Kd [1]: 191 nM

B3: 17-69-03-N001 (peptide)
peptide: ACVNEFGCEDFYDICA
modifications: linker 2-8-15 via TBMB; not fully specified (C-terminus)
notes: also called A-(17-69-03)-A
- Kd [1]: 16.7 nM

B4: 17-69-07-N001 (peptide)
peptide: ACYNEFGCEDFYDICA
modifications: linker 2-8-15 via TBMB; not fully specified (C-terminus)
notes: also called A-(17-69-07)-A
- Kd [3]: 1.65 nM

B5: 17-69-07-N057 (peptide)
peptide: Ac-CYNEYGCEDFYDIC
modifications: linker 1-7-14 via TBMB; not fully specified (C-terminus)
notes: also called Ac-(17-69-07) Tyr4
- Kd [4]: 1.78 nM

B7: 17-69-12-N005 (peptide)
peptide: ACMNQFGCEDFYDICA[Sar][Sar][Sar][Sar][Sar][Sar]K(fluorescein)
modifications: linker 2-8-15 via TBMB; not fully specified (C-terminus)
notes: also called A-(17-69-12)-A-Sar6-K(Fl); A-(17-69-12)-A-Sar6-K(Fluorescein)
- Kd [2]: 3.1 nM

B8: 17-69-07-N040 (peptide)
peptide: ACYNEFGCEDFYDICA[Sar][Sar][Sar][Sar][Sar][Sar]K(fluorescein)
modifications: linker 2-8-15 via TBMB; not fully specified (C-terminus)
notes: also called A-(17-69-07)-A-Sar6-K(Fl); A-(17-69-07)-A-Sar6-K(Fluorescein)
- Kd [2]: 0.52 nM

B9: 17-69-07-N120 (peptide)
chain: Ac-CYNEF[dR]CEDFYDIC
modifications: linker 1-7-14 via TBMB; not fully specified (C-terminus)
- Kd [5]: 4.24 nM

Other lines, results leading:

- Kd [2]: 692 nM
B2: 17-69-N004 (peptide)
peptide: ACKNRGFGCEDFYDICA[Sar][Sar][Sar][Sar][Sar][Sar]K(fluorescein)
modifications: linker 2-9-16 via TBMB; not fully specified (C-terminus)
notes: also called A-(17-69)-A-Sar6-K(Fl); A-(17-69)-A-Sar6-K(Fluorescein)

- Kd [4]: 0.75 nM
B6: 17-69-44-N002 (peptide)
peptide: Ac-CYNEWGCEDFYDIC
modifications: linker 1-7-14 via TBMB; not fully specified (C-terminus)
notes: also called Ac-(17-69-07) Trp4

- Kd [6]: 0.5 nM
B10: 17-69-07-N248 (peptide)
chain: {DOTA}-AC[dA]NE[1Nal][dA]CEDF[Phe(4-Br)]D[Tle]C
modifications: linker 2-8-15 via TBMB; not fully specified (C-terminus); also: 177Lu chelated in DOTA for biodistribution study

- Kd [7]: 0.8 nM
B11: 17-69-07-N252 (peptide)
chain: Ac-C[dA]NE[1Nal][dA]CEDF[Phe(4-Br)]D[Tle]C
modifications: linker 1-7-14 via TBMB; not fully specified (C-terminus); printed as Ac-(17-69-07) D-Ala1 1Nal4 D-Ala5 4BrPhe9 tBuGly11

- Kd [6]: 0.5 nM
B12: 17-69-07-N144 (peptide)
peptide: {DOTA}-ACYNEFGCEDFYDIC
modifications: linker 2-8-15 via TBMB; not fully specified (C-terminus); also: DOTA loaded with 177Lu
notes: Loaded with 177Lu for the biodistribution study; also called DOTA-A-(17-69-07)

- Kd [6]: 0.95 nM
B13: 17-69-07-N147 (peptide)
peptide: {DOTA}-ACYNEFGCEDFYDIC
modifications: linker 2-8-15 via TBMB; not fully specified (C-terminus); also: DOTA loaded with cold 175Lu
notes: also called DOTA[Lu]-A-(17-69-07)

- Kd [8]: 3.7 nM
B14: 17-69-12-N003 (peptide)
peptide: ACMNQFGCEDFYDICA
modifications: linker 2-8-15 via TBMB; not fully specified (C-terminus)
notes: also called A-(17-69-12)-A

- Kd [9]: 0.82 nM
- Kd [10]: 0.82 nM
- Kd [11]: 0.9 nM
- Kd [12]: 0.82 nM
B15: 17-69-07-N219 (peptide)
peptide: GXACYNEFGCEDFYDIC
modifications: not fully specified; Sar x10 in the spacer; 3 Cys cyclised with TBMB
notes: also called G-Sar10-A-(17-69-07) (non-stabilised with spacer)
